The experiment deals with Recombinant human IL-1β (BioLegend 579404) (human, UniProt P01584 117-269). In words: cell-based or functional assay.

*1 amine or outer side, *2 acyl side, *3 side chain or, on linkers, in order; H or OH if unused. [ ]: non-standard residue; d: D form. TyrEtNAc = L-tyrosine O-ethyl acetamide, (S)-3-(4-(2-acetamidoethoxy)phenyl)-2-aminopropanoic acid, CC(=O)NCCOc1ccc(C[C@H](N[*:1])C(=O)[*:2])cc1; PyrimAla4AcPip = (S)-3-(2-(4-acetylpiperazin-1-yl)pyrimidin-5-yl)-2-aminopropanoic acid, CC(=O)N1CCN(c2ncc(C[C@H](N[*:1])C(=O)[*:2])cn2)CC1; 3AzaPhe4AcPip = (S)-3-(6-(4-acetylpiperazin-1-yl)pyridin-3-yl)-2-aminopropanoic acid, CC(=O)N1CCN(c2ccc(C[C@H](N[*:1])C(=O)[*:2])cn2)CC1; Prot4NHCH2CH2Ph = (2S,4R)-4-(phenethylamino)pyrrolidine-2-carboxylic acid, O=C([C@@H]1C[C@@H](N(CCc2ccccc2)[*:3])CN1[*:1])[*:2]; 3AzaTyrEtNAc = (S)-3-(6-(2-acetamidoethoxy)pyridin-3-yl)-2-aminopropanoic acid, CC(=O)NCCOc1ccc(C[C@H](N[*:1])C(=O)[*:2])cn1; Prot4NHBn = (2S,4R)-4-(benzylamino)pyrrolidine-2-carboxylic acid, O=C([C@@H]1C[C@@H](N(Cc2ccccc2)[*:3])CN1[*:1])[*:2]; Prot4NHEt = (2S,4R)-4-(ethylamino)pyrrolidine-2-carboxylic acid, CCN([C@@H]1C[C@@H](C(=O)[*:2])N([*:1])C1)[*:3]; Phe(4-(4-Ac-piperazinyl)) = CC(=O)N1CCN(c2ccc(C[C@H](N)C(=O)O)cc2)CC1; Trp(4-Cl)(βS-Me) = C[C@@H](c1c[nH]c2cccc(Cl)c12)[C@H](N)C(=O)O; Pro(trans-4-NH2) = O=C([C@@H]1C[C@@H](N[*:3])CN1[*:1])[*:2]; Trp(βS-Me,4-F) = C[C@@H](c1c[nH]c2cccc(F)c12)[C@H](N)C(=O)O; Bip(4'-COOH) = N[C@@H](Cc1ccc(-c2ccc(C(=O)O)cc2)cc1)C(=O)O; 1Nal(3S-Me) = C[C@@H](c1cccc2ccccc12)[C@H](N)C(=O)O; Phe(4-COOH) = N[C@@H](Cc1ccc(C(=O)O)cc1)C(=O)O; hTyr = N[C@@H](CCc1ccc(O)cc1)C(=O)O; dDab = NCC[C@@H](N)C(=O)O; dNMeA = CN[C@H](C)C(=O)O; Nva = CCC[C@H](N)C(=O)O; Dap = NC[C@H](N)C(=O)O

B1: SEQ ID NO: 78 (peptide)
peptide: cyclo([Bip(4'-COOH)]W[Phe(4-COOH)]G[Pro(trans-4-NH2)][Trp(βS-Me,4-F)]D[dNMeA]G[Bip(4'-COOH)]WL[dA][hTyr])
SMILES: CC(C)C[C@@H]1NC(=O)[C@H](Cc2c[nH]c3ccccc23)NC(=O)[C@H](Cc2ccc(-c3ccc(C(=O)O)cc3)cc2)NC(=O)CNC(=O)[C@@H](C)N(C)C(=O)[C@H](CC(=O)O)NC(=O)[C@H]([C@@H](C)c2c[nH]c3cccc(F)c23)NC(=O)[C@@H]2C[C@@H](N)CN2C(=O)CNC(=O)[C@H](Cc2ccc(C(=O)O)cc2)NC(=O)[C@H](Cc2c[nH]c3ccccc23)NC(=O)[C@H](Cc2ccc(-c3ccc(C(=O)O)cc3)cc2)NC(=O)[C@H](CCc2ccc(O)cc2)NC(=O)[C@@H](C)NC1=O
As for B1, the “MRC5 IC50” value turned out to be 0.0732 nM.

B2: SEQ ID NO: 80 (peptide)
peptide: cyclo([Bip(4'-COOH)]W[Phe(4-COOH)]G[Pro(trans-4-NH2)][Trp(βS-Me,4-F)]N[dNMeA]G[Bip(4'-COOH)]KL[dA][hTyr])
SMILES: CC(C)C[C@@H]1NC(=O)[C@H](CCCCN)NC(=O)[C@H](Cc2ccc(-c3ccc(C(=O)O)cc3)cc2)NC(=O)CNC(=O)[C@@H](C)N(C)C(=O)[C@H](CC(N)=O)NC(=O)[C@H]([C@@H](C)c2c[nH]c3cccc(F)c23)NC(=O)[C@@H]2C[C@@H](N)CN2C(=O)CNC(=O)[C@H](Cc2ccc(C(=O)O)cc2)NC(=O)[C@H](Cc2c[nH]c3ccccc23)NC(=O)[C@H](Cc2ccc(-c3ccc(C(=O)O)cc3)cc2)NC(=O)[C@H](CCc2ccc(O)cc2)NC(=O)[C@@H](C)NC1=O
As for B2, the “MRC5 IC50” value stood at 0.291 nM.

B3: SEQ ID NO: 81 (peptide)
peptide: cyclo([Bip(4'-COOH)]W[Phe(4-COOH)]G[Pro(trans-4-NH2)][Trp(βS-Me,4-F)]N[dNMeA]G[Bip(4'-COOH)]KL[dDab][hTyr])
SMILES: CC(C)C[C@@H]1NC(=O)[C@H](CCCCN)NC(=O)[C@H](Cc2ccc(-c3ccc(C(=O)O)cc3)cc2)NC(=O)CNC(=O)[C@@H](C)N(C)C(=O)[C@H](CC(N)=O)NC(=O)[C@H]([C@@H](C)c2c[nH]c3cccc(F)c23)NC(=O)[C@@H]2C[C@@H](N)CN2C(=O)CNC(=O)[C@H](Cc2ccc(C(=O)O)cc2)NC(=O)[C@H](Cc2c[nH]c3ccccc23)NC(=O)[C@H](Cc2ccc(-c3ccc(C(=O)O)cc3)cc2)NC(=O)[C@H](CCc2ccc(O)cc2)NC(=O)[C@@H](CCN)NC1=O
As to B3, the “MRC5 IC50” value is 0.255 nM.

B4: SEQ ID NO: 89 (peptide)
peptide: cyclo([TyrEtNAc]W[Phe(4-COOH)]G[Pro(trans-4-NH2)][1Nal(3S-Me)]A[dNMeA]G[Bip(4'-COOH)]W[Dap][dA][hTyr])
SMILES: CC(=O)NCCOc1ccc(C[C@@H]2NC(=O)[C@H](CCc3ccc(O)cc3)NC(=O)[C@@H](C)NC(=O)[C@H](CN)NC(=O)[C@H](Cc3c[nH]c4ccccc34)NC(=O)[C@H](Cc3ccc(-c4ccc(C(=O)O)cc4)cc3)NC(=O)CNC(=O)[C@@H](C)N(C)C(=O)[C@H](C)NC(=O)[C@H]([C@@H](C)c3cccc4ccccc34)NC(=O)[C@@H]3C[C@@H](N)CN3C(=O)CNC(=O)[C@H](Cc3ccc(C(=O)O)cc3)NC(=O)[C@H](Cc3c[nH]c4ccccc34)NC2=O)cc1
Turning to B4, the “MRC5 IC50” value worked out at 0.271 nM.

B5: SEQ ID NO: 9 (peptide)
peptide: cyclo([3AzaTyrEtNAc]W[Phe(4-COOH)]G[Pro(trans-4-NH2)][Trp(βS-Me,4-F)]D[dNMeA]G[Bip(4'-COOH)]KL[dA][hTyr])
SMILES: CC(=O)NCCOc1ccc(C[C@@H]2NC(=O)[C@H](CCc3ccc(O)cc3)NC(=O)[C@@H](C)NC(=O)[C@H](CC(C)C)NC(=O)[C@H](CCCCN)NC(=O)[C@H](Cc3ccc(-c4ccc(C(=O)O)cc4)cc3)NC(=O)CNC(=O)[C@@H](C)N(C)C(=O)[C@H](CC(=O)O)NC(=O)[C@H]([C@@H](C)c3c[nH]c4cccc(F)c34)NC(=O)[C@@H]3C[C@@H](N)CN3C(=O)CNC(=O)[C@H](Cc3ccc(C(=O)O)cc3)NC(=O)[C@H](Cc3c[nH]c4ccccc34)NC2=O)cn1
As to B5, the “MRC5 IC50” value stood at 0.118 nM.

B6: SEQ ID NO: 84 (peptide)
peptide: cyclo([Bip(4'-COOH)]W[Phe(4-COOH)]G[Prot4NHEt][1Nal(3S-Me)]D[dNMeA]G[Bip(4'-COOH)]W[Dap][dA][hTyr])
SMILES: CCN[C@@H]1C[C@H]2C(=O)N[C@@H]([C@@H](C)c3cccc4ccccc34)C(=O)N[C@@H](CC(=O)O)C(=O)N(C)[C@H](C)C(=O)NCC(=O)N[C@@H](Cc3ccc(-c4ccc(C(=O)O)cc4)cc3)C(=O)N[C@@H](Cc3c[nH]c4ccccc34)C(=O)N[C@@H](CN)C(=O)N[C@H](C)C(=O)N[C@@H](CCc3ccc(O)cc3)C(=O)N[C@@H](Cc3ccc(-c4ccc(C(=O)O)cc4)cc3)C(=O)N[C@@H](Cc3c[nH]c4ccccc34)C(=O)N[C@@H](Cc3ccc(C(=O)O)cc3)C(=O)NCC(=O)N2C1
With B6, the “MRC5 IC50” value is 0.0258 nM.

B7: SEQ ID NO: 82 (peptide)
peptide: cyclo([Bip(4'-COOH)]W[Phe(4-COOH)]G[Prot4NHBn][1Nal(3S-Me)]D[dNMeA]G[Bip(4'-COOH)]W[Dap][dA][hTyr])
SMILES: C[C@@H]1C(=O)NCC(=O)N[C@@H](Cc2ccc(-c3ccc(C(=O)O)cc3)cc2)C(=O)N[C@@H](Cc2c[nH]c3ccccc23)C(=O)N[C@@H](CN)C(=O)N[C@H](C)C(=O)N[C@@H](CCc2ccc(O)cc2)C(=O)N[C@@H](Cc2ccc(-c3ccc(C(=O)O)cc3)cc2)C(=O)N[C@@H](Cc2c[nH]c3ccccc23)C(=O)N[C@@H](Cc2ccc(C(=O)O)cc2)C(=O)NCC(=O)N2C[C@H](NCc3ccccc3)C[C@H]2C(=O)N[C@@H]([C@@H](C)c2cccc3ccccc23)C(=O)N[C@@H](CC(=O)O)C(=O)N1C
Turning to B7, the “MRC5 IC50” value came to 0.0157 nM.

B8: SEQ ID NO: 88 (peptide)
peptide: cyclo([PyrimAla4AcPip]W[Phe(4-COOH)]G[Pro(trans-4-NH2)][1Nal(3S-Me)]D[dNMeA]G[Bip(4'-COOH)]W[Dap][dA][hTyr])
SMILES: CC(=O)N1CCN(c2ncc(C[C@@H]3NC(=O)[C@H](CCc4ccc(O)cc4)NC(=O)[C@@H](C)NC(=O)[C@H](CN)NC(=O)[C@H](Cc4c[nH]c5ccccc45)NC(=O)[C@H](Cc4ccc(-c5ccc(C(=O)O)cc5)cc4)NC(=O)CNC(=O)[C@@H](C)N(C)C(=O)[C@H](CC(=O)O)NC(=O)[C@H]([C@@H](C)c4cccc5ccccc45)NC(=O)[C@@H]4C[C@@H](N)CN4C(=O)CNC(=O)[C@H](Cc4ccc(C(=O)O)cc4)NC(=O)[C@H](Cc4c[nH]c5ccccc45)NC3=O)cn2)CC1
As to B8, the “MRC5 IC50” value was 0.0945 nM.

B9: SEQ ID NO: 79 (peptide)
peptide: cyclo([Bip(4'-COOH)]W[Phe(4-COOH)]G[Pro(trans-4-NH2)][Trp(βS-Me,4-F)]D[dNMeA]G[Bip(4'-COOH)]W[Nva][dA]A)
SMILES: CCC[C@@H]1NC(=O)[C@H](Cc2c[nH]c3ccccc23)NC(=O)[C@H](Cc2ccc(-c3ccc(C(=O)O)cc3)cc2)NC(=O)CNC(=O)[C@@H](C)N(C)C(=O)[C@H](CC(=O)O)NC(=O)[C@H]([C@@H](C)c2c[nH]c3cccc(F)c23)NC(=O)[C@@H]2C[C@@H](N)CN2C(=O)CNC(=O)[C@H](Cc2ccc(C(=O)O)cc2)NC(=O)[C@H](Cc2c[nH]c3ccccc23)NC(=O)[C@H](Cc2ccc(-c3ccc(C(=O)O)cc3)cc2)NC(=O)[C@H](C)NC(=O)[C@@H](C)NC1=O
Regarding B9, the “MRC5 IC50” value was found to be 0.189 nM.

B10: SEQ ID NO: 83 (peptide)
peptide: cyclo([Bip(4'-COOH)]W[Phe(4-COOH)]G[Prot4NHCH2CH2Ph][1Nal(3S-Me)]D[dNMeA]G[Bip(4'-COOH)]W[Dap][dA][hTyr])
SMILES: C[C@@H]1C(=O)NCC(=O)N[C@@H](Cc2ccc(-c3ccc(C(=O)O)cc3)cc2)C(=O)N[C@@H](Cc2c[nH]c3ccccc23)C(=O)N[C@@H](CN)C(=O)N[C@H](C)C(=O)N[C@@H](CCc2ccc(O)cc2)C(=O)N[C@@H](Cc2ccc(-c3ccc(C(=O)O)cc3)cc2)C(=O)N[C@@H](Cc2c[nH]c3ccccc23)C(=O)N[C@@H](Cc2ccc(C(=O)O)cc2)C(=O)NCC(=O)N2C[C@H](NCCc3ccccc3)C[C@H]2C(=O)N[C@@H]([C@@H](C)c2cccc3ccccc23)C(=O)N[C@@H](CC(=O)O)C(=O)N1C
Consider B10, for which the “MRC5 IC50” value stood at 0.0329 nM.

B11: SEQ ID NO: 8 (peptide)
peptide: cyclo([3AzaPhe4AcPip]W[Phe(4-COOH)]G[Pro(trans-4-NH2)][Trp(βS-Me,4-F)]D[dNMeA]G[Bip(4'-COOH)]WG[dDab][hTyr])
SMILES: CC(=O)N1CCN(c2ccc(C[C@@H]3NC(=O)[C@H](CCc4ccc(O)cc4)NC(=O)[C@@H](CCN)NC(=O)CNC(=O)[C@H](Cc4c[nH]c5ccccc45)NC(=O)[C@H](Cc4ccc(-c5ccc(C(=O)O)cc5)cc4)NC(=O)CNC(=O)[C@@H](C)N(C)C(=O)[C@H](CC(=O)O)NC(=O)[C@H]([C@@H](C)c4c[nH]c5cccc(F)c45)NC(=O)[C@@H]4C[C@@H](N)CN4C(=O)CNC(=O)[C@H](Cc4ccc(C(=O)O)cc4)NC(=O)[C@H](Cc4c[nH]c5ccccc45)NC3=O)cn2)CC1
Turning to B11, the “MRC5 IC50” value amounted to 0.14 nM.

B12: SEQ ID NO: 85 (peptide)
peptide: cyclo([Phe(4-(4-Ac-piperazinyl))]W[Phe(4-COOH)]G[Pro(trans-4-NH2)][Trp(4-Cl)(βS-Me)]D[dNMeA]G[Bip(4'-COOH)]WG[dDab][hTyr])
SMILES: CC(=O)N1CCN(c2ccc(C[C@@H]3NC(=O)[C@H](CCc4ccc(O)cc4)NC(=O)[C@@H](CCN)NC(=O)CNC(=O)[C@H](Cc4c[nH]c5ccccc45)NC(=O)[C@H](Cc4ccc(-c5ccc(C(=O)O)cc5)cc4)NC(=O)CNC(=O)[C@@H](C)N(C)C(=O)[C@H](CC(=O)O)NC(=O)[C@H]([C@@H](C)c4c[nH]c5cccc(Cl)c45)NC(=O)[C@@H]4C[C@@H](N)CN4C(=O)CNC(=O)[C@H](Cc4ccc(C(=O)O)cc4)NC(=O)[C@H](Cc4c[nH]c5ccccc45)NC3=O)cc2)CC1
Regarding B12, the “MRC5 IC50” value came out at 0.0543 nM.

For the origin of these results see patent publication US20230406885A1, “CYCLIC PEPTIDES FOR TRAPPING INTERLEUKIN-1 BETA” (MERCK SHARP & DOHME LLC, priority 2022, published 2023).
